Measured values published in patent US20250064983A1, “COMPOSITIONS AND METHODS FOR TREATING A CARDIAC DISEASE” (The Children's Medical Center Corporation, priority 2022, published 2025).
“Also recorded” adds a separate entry of the source. Where no end group is shown, it is not given here.

T1: AIPx5 multimer
T1 chain: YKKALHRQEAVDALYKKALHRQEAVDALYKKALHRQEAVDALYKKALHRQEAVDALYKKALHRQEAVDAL

T2: autocamtide-2-related inhibitory peptide (AIP)
T2 chain: YKKALHRQEAVDAL

B1: AIPx5 multimer (peptide)
peptide: T1 chain
B2: CN19oX3 multimer (peptide)
peptide: KRAPKLGQIGRQKAVDIEDKRAPKLGQIGRQKAVDIEDKRAPKLGQIGRQKAVDIED
B3: CaMKII (endogenous, mouse heart) (protein)
chain: MATTATCTRFTDDYQLFEELGKGAFSVVRRCVKKTSTQEYAAKIINTKKLSARDHQKLEREARICRLLKHPNIVRLHDSISEEGFHYLVFDLVTGGELFEDIVAREYYSEADASHCIHQILESVNHIHQHDIVHRDLKPENLLLASKCKGAAVKLADFGLAIEVQGEQQAWFGFAGTPGYLSPEVLRKDPYGKPVDIWACGVILYILLVGYPPFWDEDQHKLYQQIKAGAYDFPSPEWDTVTPEAKNLINQMLTINPAKRITADQALKHPWQRSTVASMMHRQETVECLRKFNARRKLKGAILTTMLVSRNFSAAKSLLNKKSDGGVKKRKSSSSVHLMPQSNNKNSLVSPAQEPAPLQTAMEPQTTVVHNATDGIKGSTESCNTTTEDEDLKAAPLRTGNGSLVPEGRSPRDRTAPSAGMQPQPSLCSSAMRKQEIIKITEQLIEAINNGDFEAYTKICDPGLTSFEPEALGNLVEGMDFHKFYFENLLSKNSKPIHTTILNPHVHVIGEDAACIAYIRLTQYIDGQGRPRTSQSEETRVWHRRDGKWLNVHYHCSGAPAAPLQ

Assays:
[1] = target: CaMKIIδ (Homo sapiens, UniProt Q13557); assay: in vitro inhibition of CaMKIIδ, bioluminescent ADP monitoring assay (ADP-GLO); type: biochemical; conditions: purified polypeptides
Experimental: FIG. 4 provides a schematic illustrating the design of an in vitro experiment to evaluate the impact of the purified polypeptides described in FIG. 2D and shown in the left portion of FIG. 4 on CaMKIIδ (an isomer of CaMKII) activity. Activity of CaMKIIδ was measured using a bioluminescent and homogeneous ADP monitoring assay for kinases (ADP-GLO™), which is described in Zegzouti, et al. “ADP-Glo: A Bioluminescent and Homogeneous ADP Monitoring Assay for Kinases,” ASSAY and Drug Development Technologies, December 2009, 560-572, doi.org/10.1089/adt.2009.0222, the disclosure of which is incorporated herein by reference in its entirety for all purposes.
Inhibition of CaMKIIδ activity by the polypeptides was evaluated using a bioluminescent and homogeneous ADP monitoring assay for kinases (ADP-GLO™), which is described in Zegzouti, et al. “ADP-Glo: A Bioluminescent and Homogeneous ADP Monitoring Assay for Kinases,” ASSAY and Drug Development Technologies, December 2009, 560-572, doi.org/10.1089/adt.2009.0222, the disclosure of which is incorporated herein by reference in its entirety for all purposes (FIG. 4).

[2] = tested on: LKB1 knockout mice; assay: Example 5: beat-to-beat variability (EKG) in LKB1 knockout mice (AF model); type: in vivo, mouse
From the text: Two different atrial fibrillation (AF) mouse models were used to test the efficacy of AIP×5 at treating AF of different origins. The two different AF mouse models were liver kinase B1 (LKB1) knock out mice and T-box transcription factor 5 (Tbx5) knock out mice.
LKB1-floxed or Tbx5-floxed mice were used to test the efficacy of AIP×5. AAV-NPPA-Cre was then used to conditionally knock out LKB1 or Tbx5 from the atria of the mice. NPPA is an atria specific promoter, ensuring that Cre recombinase directed knockout of LKB1 or Tbx5 was restricted to the atria. AAV-NPPA-FP (fluorescent protein) was used as a control virus. AAV-NPPA-FP has no Cre, and therefore the gene of interest is not knocked out. Uninjected mice were also included as a control to account for any effects caused by AAV injections. AAV-cTnT-AIP×5 or AAV-cTnT-CN19o were both tested as potential therapies to AF.
In short, P3 LKB1-floxed or Tbx5-floxed mice were injected (or not injected in the uninjected controls), and then EKG measurements of the mice were taken every two weeks starting at P14. At 12 weeks, the mice were sacrificed, and the sacrificed mice were tested for protein expression.
AF was calculated using the standard deviation of the beat-to-beat timing differences. A high beat-to-beat variability when sedated was indicative of atrial misfiring.
Statistical significance in the tests illustrated in FIGS. 10 and 11 was conducted using a 2-way Anova with post-hoc Dunnett's multiple comparisons to control (FP) group.

[3] = tested on: CaMKII; conditions: FIG. 2A, in vitro system of the cited papers; cited from earlier work
[4] = target: CaMKIIδ, Q13557; assay: cell-based or functional assay
[5] = target: T1, AIPx5 multimer
[6] = target: T2, autocamtide-2-related inhibitory …

Sequence of CaMKIIδ, Q13557 (Q13557 whole entry, stated change not applied): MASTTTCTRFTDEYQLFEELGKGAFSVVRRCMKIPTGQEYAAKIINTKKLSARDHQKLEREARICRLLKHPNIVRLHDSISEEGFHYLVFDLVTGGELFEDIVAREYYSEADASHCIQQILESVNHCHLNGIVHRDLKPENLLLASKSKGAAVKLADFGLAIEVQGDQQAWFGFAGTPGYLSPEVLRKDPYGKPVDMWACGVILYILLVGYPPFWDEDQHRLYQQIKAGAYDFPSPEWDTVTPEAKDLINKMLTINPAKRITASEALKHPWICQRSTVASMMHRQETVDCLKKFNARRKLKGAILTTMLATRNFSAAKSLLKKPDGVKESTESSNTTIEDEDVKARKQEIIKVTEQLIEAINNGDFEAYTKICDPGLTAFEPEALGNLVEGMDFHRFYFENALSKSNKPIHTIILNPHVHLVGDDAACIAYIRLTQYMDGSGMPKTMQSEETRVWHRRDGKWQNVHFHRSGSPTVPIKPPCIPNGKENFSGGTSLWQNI
Sequence of CaMKIIδ (Q13557 1-478): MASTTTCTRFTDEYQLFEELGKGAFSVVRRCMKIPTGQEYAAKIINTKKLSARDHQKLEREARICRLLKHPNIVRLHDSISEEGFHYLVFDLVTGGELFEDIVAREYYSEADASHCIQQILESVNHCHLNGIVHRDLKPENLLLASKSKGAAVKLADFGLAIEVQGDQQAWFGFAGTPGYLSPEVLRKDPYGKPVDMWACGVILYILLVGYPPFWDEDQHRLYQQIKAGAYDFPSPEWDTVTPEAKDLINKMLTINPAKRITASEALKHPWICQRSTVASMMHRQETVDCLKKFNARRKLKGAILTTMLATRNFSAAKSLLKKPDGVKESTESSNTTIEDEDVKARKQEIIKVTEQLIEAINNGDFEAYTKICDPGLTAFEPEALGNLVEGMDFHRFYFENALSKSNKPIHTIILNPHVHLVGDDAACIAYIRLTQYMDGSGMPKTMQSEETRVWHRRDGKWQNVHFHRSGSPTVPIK

Molecule | EC50 [1] [nM] | EC50 (inhibition of CaMKIIδ activity, ADP-GLO bioluminescent ADP monitoring assay) [4] [nM] | also measured
KRAPKLGQIGRQKAVDIED [CN19o, reference compound] | 1.6 |  | beat-to-beat variability compared to LKB1 knockout mice alone [2]: performed worse in measures of beat-to-beat variability than LKB1 knockout mice alone; suppression of beat-to-beat variability ([2]; AAV-cTnT vector, FIG. 10): did not suppress beat-to-beat variability; IC50 / potency of CaMKII inhibition compared with AIP [3]: lower IC50 than AIP; also recorded: more potent inhibitor of CaMKII than AIP
KRAPKLGQIGRQKAVDIEDKRAPKLGQIGRQKAVDIEDKRAPKLGQIGRQKAVDIED [CN19oX3] | 2.1 |  | 
YKKALHRQEAVDALYKKALHRQEAVDALYKKALHRQEAVDAL [AIP×3] | 543 |  | 
YKKALHRQEAVDALYKKALHRQEAVDALYKKALHRQEAVDAL [AIPx3 multimer] |  | 543 | 
B1 |  | 114 | 
KRAPKLGQIGRQKAVDIED [CN19o] |  | 1.6 | 
B2 |  | 2.1 | 
B3 |  |  | phosphorylation of phospholamban (PLB) at threonine-17 in heart tissue exposed to isoproterenol (capillary Western, pPLB/PLB) [5]: contacting cells with AIP or AIP×5 resulted in a statistically significant decrease in PLB phosphorylation in cells exposed to ISO; phosphorylation of phospholamban (PLB) at threonine-17 in heart tissue exposed to isoproterenol (capillary Western, pPLB/PLB) [6]: contacting cells with AIP or AIP×5 resulted in a statistically significant decrease in PLB phosphorylation in cells exposed to ISO
YKKALHRQEAVDAL [autocamtide-2-related inhibitory peptide (AIP)] |  | 6150 | 
